Here are results for three molecules from patent US20100015685A1, “LACTOBACILLUS N-DEOXYRIBOSYL TRANSFERASES, CORRESPONDING NUCLEOTIDE SEQUENCES AND THEIR USES” (INSTITUT PASTEUR, priority 2001, published 2010).

The test system of one data set is PAK 6 strain. Briefly: Growth of the PAK 6 strain on a glucose mineral medium (in vivo nutritional screening). Type of data set: cell-based, Escherichia coli. More on the design: key: (+) growth; (−) absence of growth. Particulars: for Growth of the PAK 6 strain, A: glucose mineral medium with adenine; for Growth of the PAK 6 strain, dG + A: glucose mineral medium with deoxyguanosine + adenine; for Growth of the PAK 6 strain, G: glucose mineral medium with guanine. An excerpt:
A functional screening allowing the production of guanine to be selected was established on E. coli by deleting the two genes of the guaBA operon which controls the conversion of IMP into XMP then into GMP and also those of the deoCABD operon which controls the degradation of deoxynucleosides to give the PAK 6 strain. The E. coli genome specifies an activity allowing the base G to be converted into GMP (guanine phosphoribosyltransferase encoded by the gpt gene), and also an activity allowing the base G to be released from the dR-G deoxynucleoside (purine nucleoside phosphorylase encoded by the deoD gene in the deo operon). The PAK 6 strain thus has a requirement for guanine (G) which cannot be satisfied by the addition of deoxyguanosine (dR-G). The use of deoxyguanosine (dR-G) can however be selected if an N-deoxyribosyltransferase activity is expressed in the PAK6 strain in order to carry out the exchange: dR-G+A<->dR-A+G.
This exchange between two purine bases can be catalyzed by the two enzyme classes.
DNA fragments of a size comprised between 1 and 2 kb obtained by partial digestion (AluI) of L. helveticus CNRZ 32 were ligated in a ColE1 plasmid (of pUC type digested by SmaI and desphosphorylated) and the mixture is used to transform the PAK6 strain. The transforming clones were selected in a glucose mineral medium to which deoxyguanosine (dR-G) and adenine (A) have been added to the final concentration of 0.3 mM.

Data set [1] concerns N-deoxyribosyltransferase activity. The experiment in a line: Enzymatic activity of corresponding raw extracts (in vitro). Type of data set: biochemical. More on the design: key: (+) growth; (−) absence of growth. Particulars: for Enzymatic activity of raw extracts, dC + A: substrates deoxycytidine + adenine; for Enzymatic activity of raw extracts, dC + T: substrates deoxycytidine + thymine; for Enzymatic activity of raw extracts, dG + A: substrates deoxyguanosine + adenine.

In another data set the test system is PAK 26 strain. The experiment in a line: Nutritional screening in PAK 26 strain to distinguish deoxyribosyltransferase I and II activities. It is filed as cell-based, Escherichia coli. Particulars: plasmid of selected transforming clones; deoxyguanosine and thymine as sources of guanine and thymidine. The text has this:
Preferably this strain is incapable of growing in the presence of deoxyguanosine as a source of guanine. In preferred manner, it is the PAK 6 strain. • (ii) transfer of exogenous DNA, preferably in the form of an expression vector, into the bacterium, the exogenous DNA being capable of comprising a sequence coding for a deoxyribosyltransferase. • (iii) culture of the bacteria obtained in Stage (ii) on a medium containing deoxyguanosine. • (iv) isolation of the exogenous DNA transferred into the bacteria of Stage (iii) which have developed on the medium containing deoxyguanosine. The present invention also provides a nutritional screening for distinguishing the deoxyribosyltransferase I and II activities, preferably in particular for distinguishing between the ntd and ptd polypeptides according to the invention. This second screening comprises the stages of: • (i) obtaining a bacterial strain such as for example Escherichia coli, auxotrophic for guanine and thymidine. Preferably, this strain is incapable of growing in the presence of guanine and thymidine. In preferred manner, it is the PAK 26 strain (Δ guaBguaA::Δdeo-11 ΔthyA::erm Δ (udp-metE) zif9::Tn10) is auxotrophic for methionine, guanine and thymidine. • (ii) transfer of the exogenous DNA, preferably in the form of an expression vector, into the bacterium, the exogenous DNA being capable of comprising a sequence coding for a deoxyribosyltransferase I or II. • (iii) culture of the bacteria obtained in Stage (ii) on a medium containing deoxyguanosine, then determination of whether the bacteria are growing or not. If the bacteria are growing, then the exogenous DNA codes for a deoxyribosyltransferase II activity which is expressed in said bacterium. If the bacteria are not growing, then the exogenous DNA is capable of coding for a deoxyribosyltransferase I activity. Other characteristics and advantages of the invention are clear from the rest of the description, with examples represented hereafter. […]

B1: ntd Lh: N-deoxyribosyltransferase of SEQ ID No. 2 (or SEQ ID No. 14) coded by the ntd Lh gene of Lactobacillus helveticus (protein)
chain: MNKKKTLYFGAGWFNEKQNKAYKEAMAALKENPTVDLENSYVPLENQYKGIRIDEHPEYLHNIEWASATYHNDLVGIKTSDVMLGVYLPEEEDVGLGMELGYALSQGKYILLVIPDEDYGKPINLMSWGVCDNAIKISELKDFDFNKPRYNFYDGAVY
modifications: Lactobacillus helveticus NTD
Consider B1, for which, in the data set with PAK 6 strain, the “Growth of the PAK 6 strain, A” value was “−”; the “Growth of the PAK 6 strain, dG + A” value is recorded as “+”; the “Growth of the PAK 6 strain, G” value is reported as “+”. Also, in data set [1], the “Enzymatic activity of raw extracts, dC + A” value (from here on “Enzymatic activity … dC + A”) is “+”; the “Enzymatic activity of raw extracts, dC + T” value (from here on “Enzymatic activity … dC + T”) was “+”; the “Enzymatic activity of raw extracts, dG + A” value (from here on “Enzymatic activity … dG + A”) was “+”. For the same molecule, in the data set on PAK 26 strain, the “Class of N-deoxyribosyltransferase activity (I or II)” value (from here on “Class”) is recorded as “Class II N-deoxyribosyltransferase activity”.

B2: ntd: N-deoxyribosyltransferase of SEQ ID No. 6 coded by the ntd Lf gene of Lactobacillus fermentum (protein)
chain: LKNTDPVANTKIYLATSFFNEEQRARIPQALAQLEANPTVGVVHQPFDFQYKDARVDSDPAGVFGSLEWQIATYNNDLNAVGTSDVCVALYDMDQIDEGICMEIGMFVALHKPIVLLPFTKKDKSAYEANLMLARGVTTWLEPNDFSPLKDFNFNHPMAQPFPPFKVF
modifications: Lactobacillus fermentum NTD
Take B2: in the data set with PAK 6 strain, the “Growth of the PAK 6 strain, A” value is recorded as “−”; the “Growth of the PAK 6 strain, dG + A” value is reported as “+”; the “Growth of the PAK 6 strain, G” value was “+”. In data set [1], the “Enzymatic activity … dC + A” value is reported as “+”; the “Enzymatic activity … dC + T” value was “+”; the “Enzymatic activity … dG + A” value is “+”. In the data set with PAK 26 strain, the “Class” value is “Class II N-deoxyribosyltransferase activity”.

B3: ptd Lh: N-deoxyribosyltransferase of SEQ ID No. 4 coded by the ptd Lh gene of Lactobacillus helveticus (purine deoxyribosyltransferase) (protein)
chain: MKAVVPTGKIYLGSPFYSDAQRERAAKAKELLAKNLSIAHVFFPFDDGFTDPDEKNPEIGGIRSMVWRDATYQNDLTGISNATCGVFLYDMDQLDDGSAFEIGFMRAMHKPVILVPFTEHPEKEKKMNLMIAQGVTTIIDGNTEFEKLADYNFNECPFNPVRGYGIY
modifications: Lactobacillus helveticus PTD
For B3, in the data set on PAK 6 strain, the “Growth of the PAK 6 strain, A” value is given as “−”; the “Growth of the PAK 6 strain, dG + A” value was “+”; the “Growth of the PAK 6 strain, G” value is recorded as “+”. In data set [1], the “Enzymatic activity … dC + A” value was “−”; the “Enzymatic activity … dC + T” value is reported as “−”; the “Enzymatic activity … dG + A” value is “+”. Also, in the data set with PAK 26 strain, the “Class” value is “Class I N-deoxyribosyltransferase activity”.
